± gives the uncertainty stated by the source.

This series in a line: amyloid nucleation score (Sup35N fusion, yeast selection) (log enrichment); library NNK1; higher = more nucleation; inactive = no reads after selection. The method, boiled down: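 Peptides of 20 random codons fused to Sup35N were expressed in psi-negative yeast, induced 24 hours with 100 μM copper sulfate, then grown 7 days at 30°C on medium lacking adenine and uracil. Input and output plasmid inserts were Illumina-sequenced. Nucleation score is the DiMSum log enrichment of output over input reads, centred on the mode score of non-aggregating sequences, excluding sequences with under 100 input reads. Random libraries had three technical output replicates.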
For TWIVEELFIGDRLALREGFR, the amyloid nucleation score was determined as 0.406 ± 0.63. Then VVYDGIMSWIYYCRFVVDAV, with “inactive”; and AYCVH, with 0.202 ± 0.59. Take NESGSARFSPVDSYGFGSGC: the amyloid nucleation score was -0.894 ± 0.75.

SYYSGFRMATVSHRIRWRSM returned an amyloid nucleation score of 1.88 ± 0.7. SETFKRE: the amyloid nucleation score was -0.328 ± 0.66. LYKLTEFQAYKVIRPSACCV: the amyloid nucleation score was -1.13 ± 2.4. Then ASGDMSDWISWLGSMRCKIR, with -0.082 ± 1; and NSGGVWSHYFVVVMRYL, with 0.083 ± 0.46. With SSFSLGHVDGYKSTSVDAVL, the amyloid nucleation score is 0.048 ± 1.4. Take RPTYMCSGTGDFLHFVFR: the amyloid nucleation score amounted to 4.64 ± 0.053. Then ELTLGLCSYSVRRSCGEGSW, with 6.62 ± 0.082.

Regarding AWIDCVSTNTTLDIPSLGP, the amyloid nucleation score was found to be 0.402 ± 0.24. In the case of IFVSSVRGAPYIYKCTKSRM it was -0.504 ± 0.52; in that of ILFFRRCISVGLL, 3.33 ± 0.12.

Turning to MRMRKNEHYE, the amyloid nucleation score was 0.476 ± 0.46. On to FVVEWWLASRMGLLIRGYRR, for which the amyloid nucleation score was -0.462 ± 0.58. In the case of ICLIAWGQ it was 1.66 ± 0.41. In the case of FYCPRIKNVFSEICIC it was 3.79 ± 0.1; in that of TYCNMVITRQRNA, 0.685 ± 0.38. Consider CLAGGYSGNAEGMIIETRAK, for which the amyloid nucleation score is -0.171 ± 1.7. Then SVFQVCFWFKYKRR, with 0.201 ± 0.43. In the case of KFGDPSRAAILNMSGSISDK it was -0.189 ± 0.46; in that of GVTYNLK, -0.685 ± 1.

On to SFFRFVQNVSRSAGVSDSAM, for which the amyloid nucleation score was -0.508 ± 0.42. Consider YWLSSVHSQSRVAK, for which the amyloid nucleation score is -0.298 ± 1.7.

In turn, KSVDFTYDEGRSTAVIVYHF showed an amyloid nucleation score of 0.223 ± 0.29.

Substance WSLLCDCASGQCVMR yielded an amyloid nucleation score of 0.005 ± 0.44. In the case of ITVGEYVNHCSG it was 0.224 ± 1.4; in that of ASYYQWLSLFFLTNRPFFGG, -0.809 ± 1.2.

For the substance RSICWKSFRRIFFDRW, the amyloid nucleation score was determined as 0.19 ± 0.85. Then YFFDIGVDSCMRFDIRVVET, with 1.77 ± 0.6. Consider AGLKV, for which the amyloid nucleation score is -0.479 ± 0.4. In turn, HERFLRIQRVHREKKCKVCL registered an amyloid nucleation score of 0.267 ± 0.77. GWCFVSRDLVNYLMCVTAGV: the amyloid nucleation score was -1.02 ± 0.88. In the case of LPWYSSQMRADVSTPERWFL it was -0.224 ± 0.7. As for CVVESMSIIMRRCSLS, the amyloid nucleation score is -0.861 ± 0.42.

Take AMEPKVWRDGLLPG: the amyloid nucleation score was -0.471 ± 0.47.

As to GLGCYVKNKTHESYARSTAH, the amyloid nucleation score is -0.671 ± 0.56. Substance TYCMYDYRKAVGEGWQFR returned an amyloid nucleation score of 0.124 ± 0.38. Then IFSGWCVRVFCSFLKHNCLN, with -0.408 ± 0.47; and MHRGALSTMQHLHEISLLSC, with 0.886 ± 0.52. In the case of LGESTGIFFYGEIRPYLNGS it was -0.148 ± 0.64; in that of EVENRFVCGNSDLSGNDANK, -0.489 ± 0.75; in that of IISVTVFFKCARLEILNR, -0.64 ± 0.57. DLFDFFRRRYHFRCFVSSIW: the amyloid nucleation score was -1.52 ± 2.4. Regarding STGLACSSWQAFIYLCLLYY, the amyloid nucleation score was -0.516 ± 1.1.

For the substance DLWWGRVRYG, the amyloid nucleation score was determined as 2.64 ± 0.097. For the substance QLSRSVWRRMRRQQKHPLTG, the amyloid nucleation score came out at 1.62 ± 0.81. Then HNSNECYYF, with -1.06 ± 2.4. MKCYVFLKNWMWLVDYLDSI: the amyloid nucleation score is -0.991 ± 2.4. In the case of VNTIQASMYW, the amyloid nucleation score came to 1.22 ± 0.62. Take HKFSNELLL: the amyloid nucleation score is -0.145 ± 0.76. Then GCSLLHLRVWYLSDHIIMRS, with 0.834 ± 0.36; and FEFIVMEIAC, with -0.189 ± 0.35; and FSRSWGDCIGERCGVV, with 0.307 ± 0.38. Then RCKELDCSPDSGITVTRSLI, with 1.12 ± 0.63; and SFMSGSFEWPRSYRALGFKA, with -0.719 ± 1.2. In the case of HTYSWKISDSSYPTFPELFW it was 0.121 ± 0.39; in that of SVCGH, -0.237 ± 0.37; in that of SFWNSLV, 0.468 ± 1.2. In turn, DWGRLVYRFNCKDRNRDGAR yielded an amyloid nucleation score of 0.177 ± 0.41. Then YVSTIN, with 0.629 ± 0.42; and CSYGARGIWATESIVANKSV, with “inactive”. IIRGRNVNSVRSNYYMGRFY: the amyloid nucleation score was 2.72 ± 0.095. For the substance DIWDTAAAPGCRCRGNS, the amyloid nucleation score is -0.363 ± 1.5. Regarding NPSIPCPQAACNMWY, the amyloid nucleation score turned out to be 0.819 ± 0.36. Turning to SYARTFMDLHNGSRH, the amyloid nucleation score is -0.013 ± 0.25.

For RRLSMIMLFNPLSIWCFAQS, the amyloid nucleation score came to 0.408 ± 0.5. Take KALVADC: the amyloid nucleation score came out at 0.001 ± 0.34.

For YFVFFLRDLFWRRKI, the amyloid nucleation score was determined as 0.408 ± 0.41.

AILRHRSVNSGGELCGSKFP yielded an amyloid nucleation score of 0.293 ± 1. Regarding VCAEWGAVAPGIGKEYQQRM, the amyloid nucleation score stood at 2.04 ± 0.32. On to FYRSQMIFFYMLVAPMWGRL, for which the amyloid nucleation score is -0.599 ± 0.56. Then IRSQKCCFLHRWFLACFRII, with -0.624 ± 1.1; and HSVNACLTGRKGAPLRDKPG, with 0.166 ± 0.78; and QFYHLYCHKIYCFRGEFRRR, with 1.83 ± 0.46. In the case of HCVTFACC it was 0.523 ± 0.53. PWQRSSCLGTLVLVTNYDRY: the amyloid nucleation score was 0.058 ± 0.44. Then CEGKGWFANITYSDFLLIMR, with -0.462 ± 0.97. Take DGHGRYA: the amyloid nucleation score result was “inactive”. With LWRLANWRM, the amyloid nucleation score is -0.46 ± 0.27. The substance MQTVNFVFTRLIFISDFTIQ displayed an amyloid nucleation score of 0.688 ± 0.26.

Take GLRATVYITLRFE: the amyloid nucleation score is -0.442 ± 0.43. Turning to HSLEDMKHRLGLGGWSSCKV, the amyloid nucleation score was determined as 0.183 ± 0.57. Then HEYNCRG, with “inactive”. Then HNFLLYVSSYSFFHRLFMLH, with 0.149 ± 0.46; and QNNCSPARPTAHNYVGGHAT, with 0.656 ± 1; and CLMLAGRFIC, with -0.422 ± 0.56.

For the substance SPWSSNRYVLNSFYLSHPRR, the amyloid nucleation score is -0.308 ± 0.32. Then VMTVMVFMRYRGRFVYG, with -0.041 ± 0.98; and MMSFVEKPQGESSSNEWGVN, with -0.777 ± 2.4; and CEMKASGLKYVHRFNSIPVM, with 0.984 ± 0.57. Take RIRLVCHCPFSYRLAVPLSE: the amyloid nucleation score was 3.99 ± 0.1. In the case of IKSGPPGRRQLFN, the amyloid nucleation score is -0.741 ± 0.81. In the case of YGISVMIYDRPAISACQIKH, the amyloid nucleation score is 2.71 ± 0.11. The substance KLEMARAIKFFGYDTLETAF had an amyloid nucleation score of 1.1 ± 0.71. Then RMVGYVRGMAFRRSVSRRIG, with 0.311 ± 0.68; and KSVVSFMTFPSLQEHKVVLI, with 0.33 ± 0.53. Then LNHSYMICLFLCNR, with 6.95 ± 0.073; and TYRNS, with -0.891 ± 1.2; and KFIFVGNGECMRPGCSDDSL, with 1.99 ± 0.38. In the case of PKRPMWLIQET it was -0.571 ± 0.61; in that of SYNWMVVFVYECI, 0.931 ± 0.57.

In the case of RYYLMVFFKWIFEIWKMVLK, the amyloid nucleation score was -0.646 ± 0.28. In the case of DSCEW it was -0.062 ± 0.58; in that of PFTRVGLDMYLDDSVKKGWD, -0.528 ± 0.36; in that of TASLLLTLLFGLPEGLLW, 0.975 ± 0.3. Take FVLFRLFEFASNIRVTFFF: the amyloid nucleation score was -0.833 ± 0.62.

EFSSKMSRMM: the amyloid nucleation score was 0.268 ± 1.2. As for KNNIDIAFAV, the amyloid nucleation score is -0.065 ± 0.98.

The substance ERYRFRGIKLHRGDSWRDIC gave an amyloid nucleation score of 1.14 ± 0.71. In the case of SRYLDIEVLSHGMNWMTFQT it was -0.005 ± 0.77; in that of CTGPMD, 0.055 ± 0.57; in that of VWLRIM, -0.957 ± 2.4. In the case of KNLVWMDRVQFRLSWAHVRL it was -1.38 ± 2.4. In the case of TYIFVIPHLVRSTDWTLFAE it was 0.017 ± 0.33; in that of TRFLGYWADLSICMPSYGCR, -0.209 ± 1. In turn, YMTWL returned an amyloid nucleation score of 0.676 ± 0.44.

Turning to LFVNM, the amyloid nucleation score entry was “inactive”. In the case of ILGLSRGQ it was 0.015 ± 0.37; in that of LKVTCFRTYANFGRYDILVF, 0.096 ± 0.53; in that of CMSIRWSCYPLNNQVVATEV, 0.044 ± 0.29. DHASGLVLLCLVWLGLMSLK showed an amyloid nucleation score of 0.501 ± 0.43.

Substance VRKEKRNCAGLGRTVVWVRG came in with an amyloid nucleation score of 0.461 ± 0.35.

Consider CRISTGNGVI, for which the amyloid nucleation score entry was “inactive”. With GSTFVGAIKQPIVCWIESGN, the amyloid nucleation score is -1.32 ± 1.2. In the case of VKVHEDSIRMEENSSDTYFK it was -0.218 ± 0.34; in that of VIDKDGVANGKVVLASHCVN, -0.766 ± 0.86; in that of SPCLLF, -0.637 ± 2.1. In the case of LGRSWWYYSQLWDSRHLSF it was -0.38 ± 1.5; in that of FHFKFSSLLIVSFVLGFCLV, 0.027 ± 1.7; in that of AMRGYCRAFQIWVWICGLSL, 0.027 ± 0.86. In the case of NLSCIHGLYYGSRLVSGLYQ it was 0.15 ± 0.71; in that of FIHVVAFWRLSRDSY, 0.467 ± 0.55; in that of CNKNNCWCYHCSYQVWHALY, 0.381 ± 0.42.

With PGEVRW, the amyloid nucleation score was -0.385 ± 1.9.

IWLRS registered an amyloid nucleation score of 0.779 ± 0.62. In the case of MCINIKKNMFR it was 4.74 ± 0.048. In the case of IKGPLLFIFSESVLAFDETS it was 3.6 ± 0.073; in that of WLRMYLGINFSVRYCGRRVE, 0.465 ± 0.48; in that of HYRYFCGLTYVDSAARLQGG, -1.5 ± 1.8.
